According to patent US20250092148A1 (Kyowa Kirin, published 2025):

Columns and labels:
[1] = target: T1, human CD131 W163A (human, UniProt P32927 17-897); assay: flow cytometry, Fab on HEK-293T cells expressing the mutant; labels of this column stand one row too low, mutant assigned after shifting them up (text: W163 is an epitope residue)
T1 construct: whole, on cells
T1 sequence (looked up): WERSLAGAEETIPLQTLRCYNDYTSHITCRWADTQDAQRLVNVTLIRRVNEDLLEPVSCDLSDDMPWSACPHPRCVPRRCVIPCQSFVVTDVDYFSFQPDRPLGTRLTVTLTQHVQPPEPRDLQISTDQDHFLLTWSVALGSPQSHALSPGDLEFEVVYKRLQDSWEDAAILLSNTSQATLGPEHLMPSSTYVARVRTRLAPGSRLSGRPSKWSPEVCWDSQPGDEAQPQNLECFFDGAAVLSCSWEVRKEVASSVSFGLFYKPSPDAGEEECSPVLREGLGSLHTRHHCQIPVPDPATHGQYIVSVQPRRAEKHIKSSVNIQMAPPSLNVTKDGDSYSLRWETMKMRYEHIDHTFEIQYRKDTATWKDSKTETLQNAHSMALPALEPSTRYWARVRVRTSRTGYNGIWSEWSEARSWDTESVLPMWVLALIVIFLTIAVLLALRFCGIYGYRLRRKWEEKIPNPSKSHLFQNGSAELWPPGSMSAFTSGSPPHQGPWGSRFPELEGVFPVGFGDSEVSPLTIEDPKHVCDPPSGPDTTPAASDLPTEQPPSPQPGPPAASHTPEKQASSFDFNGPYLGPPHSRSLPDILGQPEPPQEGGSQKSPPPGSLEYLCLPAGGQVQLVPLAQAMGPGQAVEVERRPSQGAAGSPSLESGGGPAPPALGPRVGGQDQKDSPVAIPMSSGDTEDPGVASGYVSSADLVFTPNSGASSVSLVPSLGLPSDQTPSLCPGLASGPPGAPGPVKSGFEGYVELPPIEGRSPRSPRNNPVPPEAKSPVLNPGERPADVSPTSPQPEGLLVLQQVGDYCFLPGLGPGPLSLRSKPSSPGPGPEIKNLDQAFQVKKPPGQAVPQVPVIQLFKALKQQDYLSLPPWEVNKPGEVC

[2] = target: T2, human CD131 P199A (human, UniProt P32927 17-897); assay: flow cytometry, Fab on HEK-293T cells expressing the mutant; labels of this column stand one row too low, mutant assigned after shifting them up
T2 construct: whole, on cells
T2 sequence (looked up): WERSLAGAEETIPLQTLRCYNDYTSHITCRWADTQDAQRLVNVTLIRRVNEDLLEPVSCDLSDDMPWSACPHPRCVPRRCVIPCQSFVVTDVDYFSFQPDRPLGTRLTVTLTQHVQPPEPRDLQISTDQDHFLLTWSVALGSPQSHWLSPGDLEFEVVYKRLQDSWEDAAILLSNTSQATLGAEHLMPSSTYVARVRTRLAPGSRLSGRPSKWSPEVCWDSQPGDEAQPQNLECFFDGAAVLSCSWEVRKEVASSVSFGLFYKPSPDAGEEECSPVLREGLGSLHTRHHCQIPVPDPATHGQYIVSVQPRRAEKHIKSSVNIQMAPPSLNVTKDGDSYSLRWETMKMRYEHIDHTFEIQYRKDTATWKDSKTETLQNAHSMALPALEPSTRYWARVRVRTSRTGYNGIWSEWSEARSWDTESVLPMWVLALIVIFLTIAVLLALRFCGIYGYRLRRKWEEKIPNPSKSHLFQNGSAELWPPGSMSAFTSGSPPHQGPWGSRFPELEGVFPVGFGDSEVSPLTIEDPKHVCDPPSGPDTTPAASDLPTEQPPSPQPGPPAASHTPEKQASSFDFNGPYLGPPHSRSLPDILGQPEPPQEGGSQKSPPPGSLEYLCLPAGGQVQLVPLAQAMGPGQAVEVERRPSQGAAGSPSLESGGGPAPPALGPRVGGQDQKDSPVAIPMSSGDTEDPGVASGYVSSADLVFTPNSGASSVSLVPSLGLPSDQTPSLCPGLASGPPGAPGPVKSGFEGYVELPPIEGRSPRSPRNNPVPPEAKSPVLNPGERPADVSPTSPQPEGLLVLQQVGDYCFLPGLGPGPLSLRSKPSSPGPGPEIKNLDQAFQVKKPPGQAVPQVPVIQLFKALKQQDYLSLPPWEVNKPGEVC

[3] = target: T3, human CD131 D146A (human, UniProt P32927 17-897); assay: as above
T3 construct: whole, on cells
T3 sequence (looked up): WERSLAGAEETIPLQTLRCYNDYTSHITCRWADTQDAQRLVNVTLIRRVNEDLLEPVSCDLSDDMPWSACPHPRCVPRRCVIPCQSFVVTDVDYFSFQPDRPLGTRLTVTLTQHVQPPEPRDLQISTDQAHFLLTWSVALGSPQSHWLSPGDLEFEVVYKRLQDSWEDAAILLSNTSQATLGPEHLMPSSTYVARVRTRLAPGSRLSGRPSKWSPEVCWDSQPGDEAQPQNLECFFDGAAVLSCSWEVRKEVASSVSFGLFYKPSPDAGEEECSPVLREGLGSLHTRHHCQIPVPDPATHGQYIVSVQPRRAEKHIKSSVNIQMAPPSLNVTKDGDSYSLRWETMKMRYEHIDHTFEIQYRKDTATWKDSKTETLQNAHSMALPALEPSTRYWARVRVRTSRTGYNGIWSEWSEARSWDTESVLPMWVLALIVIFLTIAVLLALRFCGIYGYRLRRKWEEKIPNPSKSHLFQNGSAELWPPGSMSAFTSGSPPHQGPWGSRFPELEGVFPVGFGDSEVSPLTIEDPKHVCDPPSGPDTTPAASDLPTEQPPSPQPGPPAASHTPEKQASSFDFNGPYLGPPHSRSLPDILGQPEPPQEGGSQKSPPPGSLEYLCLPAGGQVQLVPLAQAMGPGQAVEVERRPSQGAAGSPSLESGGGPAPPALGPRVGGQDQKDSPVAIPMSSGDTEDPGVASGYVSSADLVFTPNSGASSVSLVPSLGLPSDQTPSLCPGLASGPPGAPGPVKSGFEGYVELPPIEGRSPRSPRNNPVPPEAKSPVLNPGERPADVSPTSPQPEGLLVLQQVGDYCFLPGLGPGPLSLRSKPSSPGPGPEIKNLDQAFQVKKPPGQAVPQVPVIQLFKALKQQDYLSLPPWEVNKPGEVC

- Binding Reactivity (% WT) [1]: -9 % WT
- Binding Reactivity (% WT) [2]: 96.8 % WT
- Binding Reactivity (% WT) [3]: 88.4 % WT
B1: anti-CD131 antibody 131-B2, Fab (Fab, V domains shown)
VH: QVQLVQSGAEVKEPGASVKISCKASGYTFTNDYMHWVRQAPGQGLEWMGIINPTGGGTSYAQKFRGRVTMTRDTSTSTVYMELSSLRSEDTAVFYCARERYYGSGTYFNIGLWYFDLWGRGTLVTVSS
VL: not shown
notes: Fab made from the antibody by an enzyme treatment
